Results from paper PMC2998070.

Target: mouse VMS1-Flag-HA (mouse) (UniProt Q80UU1)
Experiment: co-IP

Chain of UniProt Q80UU1 (Q80UU1 whole entry): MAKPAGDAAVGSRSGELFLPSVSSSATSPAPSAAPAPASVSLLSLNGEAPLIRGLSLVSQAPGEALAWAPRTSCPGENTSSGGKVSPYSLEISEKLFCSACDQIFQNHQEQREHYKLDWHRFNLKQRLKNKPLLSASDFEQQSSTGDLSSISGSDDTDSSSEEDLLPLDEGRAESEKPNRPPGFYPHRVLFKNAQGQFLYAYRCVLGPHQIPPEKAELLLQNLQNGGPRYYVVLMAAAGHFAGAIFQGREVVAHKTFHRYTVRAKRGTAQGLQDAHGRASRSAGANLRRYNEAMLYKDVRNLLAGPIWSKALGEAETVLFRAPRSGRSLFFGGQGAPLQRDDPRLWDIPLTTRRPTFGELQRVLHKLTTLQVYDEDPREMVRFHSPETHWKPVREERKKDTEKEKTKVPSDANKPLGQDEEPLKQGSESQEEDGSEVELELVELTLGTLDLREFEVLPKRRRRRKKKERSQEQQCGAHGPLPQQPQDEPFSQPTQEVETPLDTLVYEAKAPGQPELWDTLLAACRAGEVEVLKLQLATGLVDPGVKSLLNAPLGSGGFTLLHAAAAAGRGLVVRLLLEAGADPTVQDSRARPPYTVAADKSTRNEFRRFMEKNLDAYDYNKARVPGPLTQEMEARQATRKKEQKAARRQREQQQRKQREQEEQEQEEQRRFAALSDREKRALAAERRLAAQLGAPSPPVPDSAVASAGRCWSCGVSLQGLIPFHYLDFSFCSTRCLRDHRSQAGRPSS
Chain of VCP (Q01853 whole entry): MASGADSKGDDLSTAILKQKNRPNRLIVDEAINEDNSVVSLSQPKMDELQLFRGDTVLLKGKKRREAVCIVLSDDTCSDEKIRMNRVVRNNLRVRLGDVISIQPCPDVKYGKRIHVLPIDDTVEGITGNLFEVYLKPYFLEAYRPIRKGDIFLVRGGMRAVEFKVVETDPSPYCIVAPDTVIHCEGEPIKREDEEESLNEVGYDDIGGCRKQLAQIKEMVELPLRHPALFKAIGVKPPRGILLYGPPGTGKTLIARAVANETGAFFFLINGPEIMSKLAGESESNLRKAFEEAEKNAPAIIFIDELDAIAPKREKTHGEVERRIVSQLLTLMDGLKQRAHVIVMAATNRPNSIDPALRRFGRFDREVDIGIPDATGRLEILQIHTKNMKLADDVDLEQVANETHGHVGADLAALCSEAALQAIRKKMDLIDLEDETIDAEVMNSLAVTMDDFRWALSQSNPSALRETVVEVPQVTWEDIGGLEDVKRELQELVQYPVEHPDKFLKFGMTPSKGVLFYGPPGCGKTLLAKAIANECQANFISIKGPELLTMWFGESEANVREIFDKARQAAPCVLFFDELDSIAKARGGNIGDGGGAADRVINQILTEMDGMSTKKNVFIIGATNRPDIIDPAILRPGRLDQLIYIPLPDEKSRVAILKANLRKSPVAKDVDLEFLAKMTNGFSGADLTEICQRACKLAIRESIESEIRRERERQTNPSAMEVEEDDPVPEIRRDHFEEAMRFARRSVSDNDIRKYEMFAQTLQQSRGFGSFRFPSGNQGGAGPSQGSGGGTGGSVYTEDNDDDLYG

VCP (from UniProt Q01853 1-806) (natural protein)
percent of the total cellular VCP associated with Vms1: < 5%
